Laboratory results: publication PMC11532467

Biological target: Glycylhalorhodopsin from Salinarimonas soli (SsGHR) (Salinarimonas soli)
Experiment: crystal structure

stoichiometry N: 3
Substance: Glycylhalorhodopsin from Salinarimonas soli (SsGHR) (natural protein)
